Results on one sequence are retold here after article PMC6661058.

The target in the series is T1, CepR (His-tagged response regulator) (Streptomyces clavuligerus F613-1) (UniProt E2PWN2).
T1 sequence: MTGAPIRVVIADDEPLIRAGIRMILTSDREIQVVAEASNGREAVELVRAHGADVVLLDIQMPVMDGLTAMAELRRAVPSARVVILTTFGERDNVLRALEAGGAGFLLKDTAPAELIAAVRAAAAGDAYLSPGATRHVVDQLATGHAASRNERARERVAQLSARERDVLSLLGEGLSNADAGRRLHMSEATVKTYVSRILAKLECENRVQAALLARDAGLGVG
Kind of series: EMSA. The following applies: EMSA with 0.5-3.0 ug His-CepR and 1.0 ug poly(dI-dC); buffer, salt, pH and temperature not given (as in Fu et al. 2019; Zhang et al. 2015).

Take “ATGGTCGTCCGATCGCCGCACGATCACTGATCAAGCCCTGCCCCACCCCGGCGCAAAAATTATCCGCCGGGTCATCACGCGTCATCACCACGTAATTCGGGACGGGAATACCCTGCCGCATTCCCGCCGGGGCGGCCCGGTGGGGCGGCTCCCCTCCCGCAGGCGCGGCGGTGCCCGTCGCACACTCAAGGAAGAGGGCAATGAACGA (double strand) [cefD-cmcI intergenic P1]”: the binding entry is reported as “no binding”.
